# Laboratory results from patent US20040167074A1, “Therapeutic applications of mFLINT polypeptides” (priority 1998, published 2004).
# “Also recorded” adds a separate entry of the source.
# Legend:
# [1] = system: Mouse T cell hybridoma cells (LTT cells); assay: Murine FasL-mediated apoptosis of LTT cells (Annexin V assay); type: cell-based; conditions: test agent 1 μg/ml
# Procedure: LTT,2,14,11 cells (LTT cells), see Glasebrook, Eur.J.Immunol. 17: 1561-65 (1987), were used in this Annexin V assay. On the first day, a 96 well plate was coated with anti-CD3 (2C11) at a serial dilutions. On the second day, 100,000 LTT cells were added, in 50 μl of medium per well, along with 50 μl of medium to the control wells and 50 μl of medium containing:
# Group 1. solubleFas (sFas)(FasFc, mouse), with a final concentration of 1 μg/ml
# Group 2. mFLINT (human), with a final concentration of 1 ug/ml
# Group 3. anti-FasL (mouse), with a final concentration of 1 ug/ml.
# These then were incubated overnight, at 37° C., in 5% CO2;
# On the following day (Day 3), the cells were collected from each well, washed and labeled with Annexin V and PI, following Flow cytometry analysis.
# [2] = system: intact hippocampal neurons along the dorsal CA1 regions; assay: Gerbil cerebral ischemia (carotid occlusion), hippocampal CA1 neuron count; type: in vivo; conditions: 5 min carotid occlusion; 5 ul bolus 0.63 mg/ml then 1 ul/h for 3 days intracerebral; day 5; p-0.0039 t-Test, p=0.0037 Wilcoxon
# Procedure: Adult male gerbils (70 to 80 g body weight, Charles River Laboratories, Wilmington, Mass.) were anesthetized by i.p. injections of sodium pentobarbital (Nembutal) 40 mg/kg, and additional i.p. injections of 10 mg/kg when necessary to maintain a surgical plane of anesthesia. Animals were placed on a thermostatically controlled heating blanket to maintain body temperature at 37° C. The ventral surface of the neck was exposed, the fur shaved, and the skin cleaned with 2% iodine solution.
# After the pre-surgical preparation, a midline incision was made, and the skin opened. The sternohyoid muscles were divided to exposed and isolate the common carotid arteries (CCA) for clamping. Sterilized aneurysm clips (blade with 0.15 mm, closing force ^˜10 gm) was secured by means of a sterilized clip applier on both left and right CCA for 5 minutes. The clamps were then removed and the patency of the arteries checked visually. The wound in the neck was closed by surgical suture. […]
# On the fifth day of survival; the gerbils were sacrificed in a CO2 chamber. […] After staining with Cresyl violet, the sections were viewed under a microscope at 40× magnification for cell counter quantification of the intact hippocampal neurons along the dorsal CA1 regions (0.5 mm in length) of both hemispheres. Data were analyzed by Student t-Test and the Wilcoxon ranking test.
# osteoclasts = assay: Murine osteoclast differentiation assay (TRAP staining); type: cell-based, mouse; conditions: mean and standard error of 6 wells
# Procedure: Male Balb/C mice (4-8 weeks old) were euthanized with CO2, the femurs removed, and the marrow flushed out of the femurs with growth medium. Bone marrow cells were pelleted by centrifugation at 500×g for 6 min. and resuspended in the growth medium (RPMI 1640 plus 5% heat inactivated fetal bovine-serum and 1% antibiotic-antimycotic solution). The marrow population (5×10^4 cells/cm^2) was seeded in tissue culture dishes in which BALC cells (a stable cell line derived from neonatal mouse calvariae, 1.5×10^4 cells/cm^2) had been plated 2 h prior to addition of bone marrow. The cells were cultured for 7 days in a humidified incubator at 37° C. with 5% CO2 with medium changes on days 3 and 5. Cultures were treated with or without 10^−8M 1,25-(OH)2D3 on days 0, 3, and 5. In addition, -the cells were treated with or without secreted mFLINT protein purified from the conditioned medium of cells transfected with mFLINT gene (FIG. 1). Following 7 days of culture, the cells in 24-well cluster dishes were fixed with formalin (3.7% for 10 min) and then stained for tartrate-resistant acid phosphatase (TRAP) using a modification of the method described by Graves, L and Jilka R L, J Cell Physiology 145:102 1990. The number of osteoclasts (TRAP-positive cells containing 3 or more nuclei) was quantitated.
# bone marrow cells = assay: Viable cell count of bone marrow cells from 5-FU treated mice after cytokine expansion; type: cell-based, mouse; conditions: FIG. 10; 3 days with SCF and IL-6; mFLINT 1 ug/ml, anti-FasL 1 ug/ml, FasL 0.15 ug/ml; control 3,300
# From the text: Following a 3 day in vitro expansion period with cytokines, viable cells are counted and used to set up a CFU assay. If mFLINT or anti-FasL antibody protects progenitor cells from apoptosis, one would expect a greater number of colonies in these groups for the CFU assay. […] The values were: control cells: 3,300; FasL-treated cells: 3,000; anti-FasL-treated cells: 4,200; mFLINT-treated cells: 4,900.
molecule,measurement,setting,value
"mFLINT: mature FLINT without leader peptide (FIG. 3), soluble TNFR superfamily member, made according to Examples 8 and 9 (protein, glycosylated) VAETPTYPWRDAETGERLVCAQCPPGTFVQRPCRRDSPTTCGPCPPRHYTQFWNYLERCRYCNVLCGEREEEARACHATHNRACRCRTGFFAHAGFCLEHASCPPGAGVIAPGTPSQNTQCQPCPPGTFSASSSSSEQCQPHRNCTALGLALNVPGSSSHDTLCTSCTGFPLSTRVPGAEECERAVIDFVAFQDISIKRLQRLLQALEAPEGWGPTPRAGRAALQLKLRRRLTELLGAQDGALLVRLLQALRVARMPGLERSVRERFLPVH",% Annexin V Positive,[1]; Anti CD3 0,26.47%
same,% Annexin V Positive,[1]; Anti CD3 0.11,33.24%
same,% Annexin V Positive,[1]; Anti CD3 0.33,35.89%
same,% Annexin V Positive,[1]; Anti CD3 1,34.41%
same,neuronal survival (intact hippocampal CA1 neurons),[2],significant effect on neuronal survival compared to vehicle; also recorded: indistinguishable from normal controls
same,Osteoclasts/well,"osteoclasts; FLINT 0.01 ng/ml, control 145.50",40.50 ± 2.39 Osteoclasts/well
same,Osteoclasts/well,osteoclasts; FLINT 0.10 ng/ml,65.50 ± 3.33 Osteoclasts/well
same,Osteoclasts/well,osteoclasts; FLINT 1.00 ng/ml,97.50 ± 3.10 Osteoclasts/well
same,Osteoclasts/well,osteoclasts; FLINT 10.00 ng/ml,170.17 ± 8.26 Osteoclasts/well
same,Osteoclasts/well,osteoclasts; FLINT 100.00 ng/ml,335.00 ± 8.90 Osteoclasts/well
same,bone marrow cell count,bone marrow cells,"4,900 ×1000"
